Target: four tandem FKBP12 domains expressed from pBP0722 pSH1-Fpk-Fpk'.LS.Fpk''.Fpk'''.LS.HA
Assay: cell-based or functional assay

B1: FRBL-ΔCaspase-9 expressed from pBP0463 pSH1-FRBL.dCaspase9.T2A (other)
chain: EMWHEGLEEASRLYFGERNVKGMFEVLEPLHAMMERGPQTLKETSFNQAYGRDLMEAQEWCRKYMKSGNVKDLLQAWDLYYHVFRRISKSGGGSGVDDGFGDVGALESLRGNADLAYILSMEPCGHCLIINNVNFCRESGLRTRTGSNIDCEKLRRRFSSLHFMVEVKGDLTAKKMVLALLELARQDHGALDCCVVVILSHGCQASHLQFPGAVYGTDGCPVSVEKIVNIFNGTSCPSLGGKPKLFFIQACGGEQKDHGFEVASTSPEDESPGSNPEPDATPFQEGLRTFDQLDAISSLPTPSDIFVSYSTFPGFVSWRDPKSGSWYVETLDDIFEQWAHSEDLQSLLLRVANAVSVKGIYKQMPGCFNFLRKKLFFKTSASRAEGRGSLLTCGDVEENPGP
  IC50 of rapamycin or C7-isopropoxy-rapamycin (the small-molecule heterodimerizer, not of a protein) for loss of SRα-SEAP reporter activity in transfected 293 cells: ~3 nM
